Source: patent US20160136295A1, “BIOMARKERS FOR TREATMENT WITH ANTI-TUBULIN CHEMOTHERAPEUTIC COMPOUNDS” (GENENTECH, INC., priority 2012, published 2016)

Legend:
Assay type in all cases: biochemical, human
Mcl-1 S121 = assay: In vitro kinase reactions: percent phosphorylation of full-length recombinant Mcl-1 at S121; conditions: for Percent phosphorylation S121, AVE: average of INJ1 and INJ2; for Percent phosphorylation S121, INJ1: sample injection 1; for Percent phosphorylation S121, INJ2: sample injection 2
Procedure: (§1) To determine the suitability of residues in Mcl-1 as kinase substrates, 10 μM of Mcl-1 was incubated with selected kinase at enzyme concentrations between 25 and 100 nM. For these reactions the Mcl-1 was dialyzed into 20 mM Phosphate, 50 mM Tris pH 7.5 150 mM NaCl, 5 mM DTT and 0.5% CHAPS. The protein solution was further supplemented with MgCl2 to 10 mM and ATP to 1 mM prior to addition of kinase. Purified recombinant kinases were purchased from Invitrogen Co. (Carlsbad, Calif.).
(§2) 10 μl of each of the Mcl-1 kinase reactions (100 pmol) were loaded onto a 4-12% Bis-Tris gel for separation by SDS-PAGE after reduction. Mcl-1 bands were excised from the gel, dehydrated (50% acetonitrile in 50 mM ammonium bicarbonate then 100% acetonitrile washes), and incubated with 0.2 μg trypsin overnight at 37° C.
(§3) Samples were injected in duplicate via autosampler onto a nanoAcquity® UPLC (Waters, Milford, Mass.) and analyzed on-line via nanospray ionization into an LTQ-Orbitrap® mass spectrometer at a concentration of 300 fmol synthetic peptide mix per injection. Areas were integrated for the isotopic and kinase phosphorylated peptides, and compared to their non-phosphorylated peptide counterparts to obtain percent phosphorylation values.

Mcl-1 T163 = assay: In vitro kinase reactions: percent phosphorylation of full-length recombinant Mcl-1 at T163; conditions: single kinase reactions; for Percent phosphorylation T163, AVE: average of INJ1 and INJ2; for Percent phosphorylation T163, INJ1: sample injection 1; for Percent phosphorylation T163, INJ2: sample injection 2
Procedure: as §1, §2, §3

Mcl-1 S159/T163 = assay: In vitro kinase reactions: percent phosphorylation of full-length recombinant Mcl-1 at S159+T163; conditions: for Percent phosphorylation S159/T163, AVE: average; for Percent phosphorylation S159/T163, INJ1: sample injection 1; for Percent phosphorylation S159/T163, INJ2: sample injection 2
Procedure: as §1, §2, §3

Mcl-1 T92 = assay: In vitro kinase reactions: percent phosphorylation of full-length recombinant Mcl-1 at T92; conditions: single kinase reactions, peak areas of 0 and 1P, triple charged state; for Percent phosphorylation T92, AVE: average; for Percent phosphorylation T92, INJ1: sample injection 1; for Percent phosphorylation T92, INJ2: sample injection 2
Procedure: as §1, §2, §3

[1] = % phos on S159+T163, CDK1 + kinase panel reactions
[2] = % phos on S159+T163, single kinase reactions

Percent phosphorylation S121, AVE (Mcl-1 S121; CDK1 + kinase panel reactions) [%] | Percent phosphorylation S121, INJ1 (Mcl-1 S121; CDK1 + kinase panel reactions) [%] | Percent phosphorylation S121, INJ2 (Mcl-1 S121; CDK1 + kinase panel reactions) [%] | Percent phosphorylation S121, AVE (Mcl-1 S121; single kinase reactions) [%] | Percent phosphorylation S121, INJ1 (Mcl-1 S121; single kinase reactions) [%] | Percent phosphorylation S121, INJ2 (Mcl-1 S121; single kinase reactions) [%] | Percent phosphorylation T163, AVE (Mcl-1 T163) [%] | Percent phosphorylation T163, INJ1 (Mcl-1 T163) [%] | Percent phosphorylation T163, INJ2 (Mcl-1 T163) [%] | Percent phosphorylation S159/T163, AVE (Mcl-1 S159/T163; [1]) [%] | Percent phosphorylation S159/T163, INJ1 (Mcl-1 S159/T163; [1]) [%] | Percent phosphorylation S159/T163, INJ2 (Mcl-1 S159/T163; [1]) [%] | Percent phosphorylation S159/T163, AVE (Mcl-1 S159/T163; [2]) [%] | Percent phosphorylation S159/T163, INJ1 (Mcl-1 S159/T163; [2]) [%] | Percent phosphorylation S159/T163, INJ2 (Mcl-1 S159/T163; [2]) [%] | Percent phosphorylation T92, AVE (Mcl-1 T92) [%] | Percent phosphorylation T92, INJ1 (Mcl-1 T92) [%] | Percent phosphorylation T92, INJ2 (Mcl-1 T92) [%] | Molecule
18.12 | 18.73 | 17.51 | 11.00 | 10.71 | 11.28 | 53.34 | 55.05 | 51.63 | 0.00 | 0.00 | 0.00 | 0.00 | 0.00 | 0.00 | 69.58 | 71.57 | 67.59 | MAPK12: purified recombinant kinase purchased from Invitrogen (protein, UniProt P53778 1-367, looked up) Mitogen-activated protein …: MSSPPPARSGFYRQEVTKTAWEVRAVYRDLQPVGSGAYGAVCSAVDGRTGAKVAIKKLYRPFQSELFAKRAYRELRLLKHMRHENVIGLLDVFTPDETLDDFTDFYLVMPFMGTDLGKLMKHEKLGEDRIQFLVYQMLKGLRYIHAAGIIHRDLKPGNLAVNEDCELKILDFGLARQADSEMTGYVVTRWYRAPEVILNWMRYTQTVDIWSVGCIMAEMITGKTLFKGSDHLDQLKEIMKVTGTPPAEFVQRLQSDEAKNYMKGLPELEKKDFASILTNASPLAVNLLEKMLVLDAEQRVTAGEALAHPYFESLHDTEDEPQVQKYDDSFDDVDRTLDEWKRVTYKEVLSFKPPRQLGARVSKETPL
70.06 | 68.97 | 71.14 | 21.56 | 17.66 | 25.46 | 56.77 | 60.42 | 53.11 | 9.45 | 10.13 | 8.76 | 16.98 | 15.54 | 18.42 | 6.04 | 5.99 | 6.08 | MAPK8: purified recombinant kinase purchased from Invitrogen (protein, UniProt P45983 1-427, looked up) Mitogen-activated protein …: MSRSKRDNNFYSVEIGDSTFTVLKRYQNLKPIGSGAQGIVCAAYDAILERNVAIKKLSRPFQNQTHAKRAYRELVLMKCVNHKNIIGLLNVFTPQKSLEEFQDVYIVMELMDANLCQVIQMELDHERMSYLLYQMLCGIKHLHSAGIIHRDLKPSNIVVKSDCTLKILDFGLARTAGTSFMMTPYVVTRYYRAPEVILGMGYKENVDLWSVGCIMGEMVCHKILFPGRDYIDQWNKVIEQLGTPCPEFMKKLQPTVRTYVENRPKYAGYSFEKLFPDVLFPADSEHNKLKASQARDLLSKMLVIDASKRISVDEALQHPYINVWYDPSEAEAPPPKIPDKQLDEREHTIEEWKELIYKEVMDLEERTKNGVIRGQPSPLGAAVINGSQHPSSSSSVNDVSSMSTDPTLASDTDSSLEAAAGPLGCCR
20.30 | 20.33 | 20.26 | 8.21 | 10.06 | 6.35 | 64.78 | 65.53 | 64.03 | 0.56 | 0.74 | 0.38 | 4.70 | 5.77 | 3.62 | 22.75 | 22.96 | 22.54 | MAPK13: purified recombinant kinase purchased from Invitrogen (protein, UniProt O15264 1-365, looked up) Mitogen-activated protein …: MSLIRKKGFYKQDVNKTAWELPKTYVSPTHVGSGAYGSVCSAIDKRSGEKVAIKKLSRPFQSEIFAKRAYRELLLLKHMQHENVIGLLDVFTPASSLRNFYDFYLVMPFMQTDLQKIMGMEFSEEKIQYLVYQMLKGLKYIHSAGVVHRDLKPGNLAVNEDCELKILDFGLARHADAEMTGYVVTRWYRAPEVILSWMHYNQTVDIWSVGCIMAEMLTGKTLFKGKDYLDQLTQILKVTGVPGTEFVQKLNDKAAKSYIQSLPQTPRKDFTQLFPRASPQAADLLEKMLELDVDKRLTAAQALTHPFFEPFRDPEEETEAQQPFDDSLEHEKLTVDEWKQHIYKEIVNFSPIARKDSRRRSGMKL
32.85 | 32.82 | 32.88 | 13.14 | 11.61 | 14.67 | 43.90 | 45.09 | 42.70 | 4.10 | 3.86 | 4.33 | 16.83 | 16.73 | 16.92 | 9.35 | 10.29 | 8.41 | MAPK10: purified recombinant kinase purchased from Invitrogen (protein, UniProt P53779 1-464, looked up) Mitogen-activated protein …: MSLHFLYYCSEPTLDVKIAFCQGFDKQVDVSYIAKHYNMSKSKVDNQFYSVEVGDSTFTVLKRYQNLKPIGSGAQGIVCAAYDAVLDRNVAIKKLSRPFQNQTHAKRAYRELVLMKCVNHKNIISLLNVFTPQKTLEEFQDVYLVMELMDANLCQVIQMELDHERMSYLLYQMLCGIKHLHSAGIIHRDLKPSNIVVKSDCTLKILDFGLARTAGTSFMMTPYVVTRYYRAPEVILGMGYKENVDIWSVGCIMGEMVRHKILFPGRDYIDQWNKVIEQLGTPCPEFMKKLQPTVRNYVENRPKYAGLTFPKLFPDSLFPADSEHNKLKASQARDLLSKMLVIDPAKRISVDDALQHPYINVWYDPAEVEAPPPQIYDKQLDEREHTIEEWKELIYKEVMNSEEKTKNGVVKGQPSPSGAAVNSSESLPPSSSVNDISSMSTDQTLASDTDSSLEASAGPLGCCR
10.11 | 10.45 | 9.76 | 5.66 | 5.84 | 5.48 | 51.87 | 53.70 | 50.04 | 0.94 | 1.15 | 0.73 | 2.56 | 3.06 | 2.06 | 3.27 | 2.59 | 3.95 | MAPK11: purified recombinant kinase purchased from Invitrogen (protein, UniProt Q15759 1-364, looked up) Mitogen-activated protein …: MSGPRAGFYRQELNKTVWEVPQRLQGLRPVGSGAYGSVCSAYDARLRQKVAVKKLSRPFQSLIHARRTYRELRLLKHLKHENVIGLLDVFTPATSIEDFSEVYLVTTLMGADLNNIVKCQALSDEHVQFLVYQLLRGLKYIHSAGIIHRDLKPSNVAVNEDCELRILDFGLARQADEEMTGYVATRWYRAPEIMLNWMHYNQTVDIWSVGCIMAELLQGKALFPGSDYIDQLKRIMEVVGTPSPEVLAKISSEHARTYIQSLPPMPQKDLSSIFRGANPLAIDLLGRMLVLDSDQRVSAAEALAHAYFSQYHDPEDEPEAEPYDESVEAKERTLEEWKELTYQEVLSFKPPEPPKPPGSLEIEQ
